# Data from US20200046796A1 (TECHNION RESEARCH AND DEVELOPMENT FOUNDATION, published 2020).
# T1: Recombinant human α-Catenin protein
# T1 chain: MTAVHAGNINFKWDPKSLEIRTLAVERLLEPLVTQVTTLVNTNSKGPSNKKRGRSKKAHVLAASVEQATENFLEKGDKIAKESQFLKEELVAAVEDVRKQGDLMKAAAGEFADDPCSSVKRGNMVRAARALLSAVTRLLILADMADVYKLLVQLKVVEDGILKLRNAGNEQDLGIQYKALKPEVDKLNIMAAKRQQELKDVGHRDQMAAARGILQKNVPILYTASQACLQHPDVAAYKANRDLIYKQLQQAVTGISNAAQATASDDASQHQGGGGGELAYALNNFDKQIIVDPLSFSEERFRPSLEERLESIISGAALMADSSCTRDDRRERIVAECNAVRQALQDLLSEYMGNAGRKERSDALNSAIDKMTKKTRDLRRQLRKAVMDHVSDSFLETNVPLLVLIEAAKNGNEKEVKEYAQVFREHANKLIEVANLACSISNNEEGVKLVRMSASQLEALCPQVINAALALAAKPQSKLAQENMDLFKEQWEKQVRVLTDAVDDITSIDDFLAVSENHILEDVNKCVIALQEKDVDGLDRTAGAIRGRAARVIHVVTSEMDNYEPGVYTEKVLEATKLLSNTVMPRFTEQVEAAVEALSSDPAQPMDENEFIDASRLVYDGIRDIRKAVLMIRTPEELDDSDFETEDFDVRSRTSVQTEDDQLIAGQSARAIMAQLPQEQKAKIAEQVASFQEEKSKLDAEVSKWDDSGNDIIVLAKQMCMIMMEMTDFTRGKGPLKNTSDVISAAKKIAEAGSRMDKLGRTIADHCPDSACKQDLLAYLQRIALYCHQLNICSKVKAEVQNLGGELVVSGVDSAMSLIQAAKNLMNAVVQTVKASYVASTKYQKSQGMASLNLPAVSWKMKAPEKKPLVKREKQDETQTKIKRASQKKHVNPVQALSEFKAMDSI
# T2: α-Catenin (endogenous, from HaCaT cells), P35221
# T2 chain: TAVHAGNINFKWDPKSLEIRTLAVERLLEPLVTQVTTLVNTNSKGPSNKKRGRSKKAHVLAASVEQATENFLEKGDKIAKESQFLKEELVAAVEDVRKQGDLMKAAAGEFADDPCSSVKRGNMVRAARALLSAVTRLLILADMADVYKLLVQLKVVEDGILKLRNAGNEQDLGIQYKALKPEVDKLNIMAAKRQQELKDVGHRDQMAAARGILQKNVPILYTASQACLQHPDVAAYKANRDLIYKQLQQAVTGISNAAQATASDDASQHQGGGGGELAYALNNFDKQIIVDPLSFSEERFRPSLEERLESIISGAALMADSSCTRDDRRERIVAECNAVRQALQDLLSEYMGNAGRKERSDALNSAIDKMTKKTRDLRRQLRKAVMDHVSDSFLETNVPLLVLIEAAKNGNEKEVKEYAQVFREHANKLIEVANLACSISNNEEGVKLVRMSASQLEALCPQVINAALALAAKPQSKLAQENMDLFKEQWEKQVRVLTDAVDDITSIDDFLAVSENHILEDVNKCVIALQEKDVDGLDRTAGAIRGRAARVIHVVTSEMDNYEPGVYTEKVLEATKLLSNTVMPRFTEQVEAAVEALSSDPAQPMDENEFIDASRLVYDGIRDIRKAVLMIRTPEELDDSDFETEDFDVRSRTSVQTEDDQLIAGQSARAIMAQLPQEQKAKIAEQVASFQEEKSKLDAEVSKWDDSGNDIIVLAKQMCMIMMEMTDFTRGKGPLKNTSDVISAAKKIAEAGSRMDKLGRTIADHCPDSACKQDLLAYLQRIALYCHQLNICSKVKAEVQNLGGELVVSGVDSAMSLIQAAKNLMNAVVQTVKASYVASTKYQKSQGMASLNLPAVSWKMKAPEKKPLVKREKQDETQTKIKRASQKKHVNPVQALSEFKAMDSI
# B1: activated (cleaved) Caspase-3 (endogenous, from mouse dorsal skin) (enzyme, UniProt P70677 29-277, looked up)
# chain: SGIYLDSSYKMDYPEMGICIIINNKNFHKSTGMSSRSGTDVDAANLRETFMGLKYQVRNKNDLTREDILELMDSVSKEDHSKRSSFVCVILSHGDEGVIYGTNGPVELKKLTSFFRGDYCRSLTGKPKLFIIQACRGTELDCGIETDSGTDEEMACQKIPVEADFLYAYSTAPGYYSWRNSKDGSWFIQSLCSMLKLYAHKLEFMHILTRVNRKVATEFESFSLDSTFHAKKQIPCIVSMLTKELYFYH
# notes: also called CP3
# B2: recombinant human active caspase-3 (protein)
# chain: SGISLDNSYKMDYPEMGLCIIINNKNFHKSTGMTSRSGTDVDAANLRETFRNLKYEVRNKNDLTREEIVELMRDVSKEDHSKRSSFVCVLLSHGEEGIIFGTNGPVDLKKITNFFRGDRCRSLTGKPKLFIIQACRGTELDCGIETDSGVDDDMACHKIPVEADFLYAYSTAPGYYSWRNSKDGSWFIQSLCAMLKQYADKLEFMHILTRVNRKVATEFESFSFDATFHAKKQIPCIVSMLTKELYFYH
# Key:
# [1] = biological target: Yes associated protein 1 (YAP) (endogenous, from mouse dorsal skin) (mouse, UniProt P46938 1-488, limits assumed); assay: co-immunoprecipitation of endogenous proteins from mouse skin, Western blot
# Chain of Yes associated protein 1 (YAP) (endogenous, from mouse dorsal skin) (P46938 whole entry): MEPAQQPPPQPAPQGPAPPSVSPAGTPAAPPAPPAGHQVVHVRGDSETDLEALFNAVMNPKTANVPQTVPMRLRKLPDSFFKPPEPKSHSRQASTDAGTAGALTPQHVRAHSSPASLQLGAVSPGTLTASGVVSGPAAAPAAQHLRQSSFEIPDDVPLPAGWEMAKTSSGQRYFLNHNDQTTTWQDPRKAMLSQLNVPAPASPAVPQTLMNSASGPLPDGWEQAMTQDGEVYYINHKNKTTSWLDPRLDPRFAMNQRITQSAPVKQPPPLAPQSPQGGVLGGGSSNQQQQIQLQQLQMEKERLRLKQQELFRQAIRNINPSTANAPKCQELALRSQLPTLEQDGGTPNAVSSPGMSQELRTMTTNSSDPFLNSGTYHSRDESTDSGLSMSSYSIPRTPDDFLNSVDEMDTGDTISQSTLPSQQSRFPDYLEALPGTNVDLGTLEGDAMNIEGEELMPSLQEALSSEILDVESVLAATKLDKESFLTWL
# Experimental: Protein extraction, Western Blot and Co-immunoprecipitation—Skin tissues were disrupted using homogenizer. Cells were washed with ice-cold PBS and collected on ice before centrifugation (4,000 rpm, 5 minutes at 4° C.), lysed in lysis buffer with protease inhibitors, and then incubated on ice for 30 minutes. After centrifugation (14,000 rpm, 15 minutes at 4° C.), the proteins (supernatant) were removed and quantified (Bradford reagent, BioRad). The NE-PER Nuclear and Cytoplasmic Extraction Reagents Kit (Thermo Scientific) was used to separate cellular fractions. For CO-IP, equal amounts of cell lysates were incubated with antibody, and immunocomplexes were captured on Protein-A/G Agarose beads. […] Membranes were blocked in 5% dry skimmed milk in PBS-T and incubated with primary antibodies (1:1000).
# [2] = biological target: T1, Recombinant human α-Catenin protein
# [3] = biological target: recombinant mouse H3/H4 heterodimer, P62806
# [4] = biological target: T2, α-Catenin (endogenous, from HaCaT …)
Binder,binding result [1],"in vitro cleavage assay, SDS-electrophoresis and Coomassie staining [2]","in vitro cleavage assay, Coomassie staining [3]","cleavage in HaCaT protein lysate, Western blot with antibodies for the C and N termini of α-Catenin [4]","release of 14-3-3 from α-Catenin pull-down complexes after in vitro cleavage, Western blot [4]"
B1,no binding,–,–,–,–
B2,–,"a dramatic decrease in the levels of full length α-Catenin (FIG. 4M) (Caspase-3 cleaved α-Catenin), giving rise to two novel bands at a molecular weight of ˜14 kDa and ˜17 kDa",Caspase-3 was not able to cleave either histones H2A/H2B or H3/H4,addition of cleaved Caspase-3 results in a major decrease in the level of full-length α-Catenin,Caspase-3-mediated cleavage facilitates the release of 14-3-3 from α-Catenin
